From US6710030B1, “Contortrostain (CN) and methods for its use in preventing metastasis and other conditions” (University of Southern California, priority 1993, dated 2004)

Test system: MDA-MB-435 cells
Assay: Phosphotyrosine immunoblot, MDA-MB-435 cells
Assay type: cell-based, human
Protocol: Cell culture, preparation and stimulation—T24 cells were maintained in RPMI 1640 medium containing 5% fetal bovine serum, and MDA-MB-435 and 293 cells were maintained in Dulbecco's modified Eagle's medium with 10% serum at 37° C. in 5% CO2. Cells were washed with phosphate-buffered saline (PBS) and starved in the appropriate serum-free medium for 6 h at 37° C. Cells were detached by brief treatment with 0.05% trypsin/0.02% EDTA in PBS and collected by centrifugation, resuspended in soybean trypsin inhibitor (1 mg/ml in serum-free medium), and washed in 2% bovine serum albumin/serum-free medium. Cells were maintained in suspension for 1 h in 2% bovine serum albumin/serum-free medium at 37° C. with end-over-end agitation. Quiescent cells (3×10^6/ml) were treated with disintegrins or other reagents while in suspension, or were allowed to adhere to Matrigel (Becton Dickinson, Bedford, Mass.) diluted 1:100 with serum-free medium during treatment.
Lysate preparation and immunoprecipitation—Suspended and adherent cells were washed twice with cold PBS and lysed in cold lysis buffer (50 mM Tris, pH 8.0, 150 mM NaCl, 1% Nonidet P-40, 0.5% deoxycholate, 0.1% SDS, protease inhibitor cocktail, 1 mM sodium pyrophosphate, 1 mM sodium orthovanadate, 50 mM sodium fluoride). After 10-15 min incubation on ice, insoluble material was removed by centrifugation at 14,000 RPM in a microcentrifuge for 15 min. Supernatants were collected and total protein concentrations standardized by the BCA protein assay (Pierce, Rockford, Ill.). Immunoprecipitation was carried out by incubating whole cell lysates (200 μg total protein) with 1.25 μg anti-FAK or anti-CAS mAb 4-6 h at 4° C. followed by 20 μl protein G-agarose overnight at 4° C. Immunoprecipitates were washed 4 times in lysis buffer without inhibitors and dissociated by adding SDS-PAGE sample buffer and boiling 5 min. Whole cell lysates (30 μg total protein) or immunoprecipitates were resolved by 7.5% SDS-polyacrylamide gel electrophoresis and transferred to nitrocellulose membranes.
Immunoblotting—Membranes were blocked with 5% nonfat milk/Tris-buffered saline/0.1% Tween 20 (blocking buffer) 1 h at room temperature or overnight at 4° C. Primary antibody incubations were performed in blocking buffer for 1 h at room temperature. After washing in Tris-buffered saline/0.1% Tween 20, membranes were incubated with horseradish peroxidase-conjugated secondary antibody in blocking buffer 1 h at room temperature. Membranes were washed extensively. Inimunoblots were developed using Super Signar West Pico Chemiluminescent Substrate from Pierce. Densitometry was performed using UN-SCAN-IT™, software (Silk Scientific, Orem, Utah))

Row | Molecule | effect on contortrostatin (10 nM)-induced tyrosine phosphorylation (1 μM, added simultaneously, 10 min) | effect alone on tyrosine phosphorylation (concentrations up to 1 μM) | stimulation of tyrosine phosphorylation (10 μg/ml, data not shown)
1 | flavoridin: monomeric disintegrin obtained from Sigma (protein) GEECDCGSPSNPCCDAATCKLRPGAQCADGLCCDQCRFKKKRTICRIARGDFPDDRCTGLSNDCPRWNDL | completely abrogated | no effect on tyrosine phosphorylation | –
2 | monomeric vitronectin: soluble monomeric vitronectin (protein, UniProt P04004 20-478, looked up) Vitronectin: DQESCKGRCTEGFNVDKKCQCDELCSYYQSCCTDYTAECKPQVTRGDVFTMPEDEYTVYDDGEEKNNATVHEQVGGPSLTSDLQAQSKGNPEQTPVLKPEEEAPAPEVGASKPEGIDSRPETLHPGRPQPPAEEELCSGKPFDAFTDLKNGSLFAFRGQYCYELDEKAVRPGYPKLIRDVWGIEGPIDAAFTRINCQGKTYLFKGSQYWRFEDGVLDPDYPRNISDGFDGIPDNVDAALALPAHSYSGRERVYFFKGKQYWEYQFQHQPSQEECEGSSLSAVFEHFAMMQRDSWEDIFELLFWGRTSAGTRQPQFISRDWHGVPGQVDAAMAGRIYISGMAPRPSLAKKQRFRHRNRKGYRSQRGHSRGRNQNSRRPSRATWLSLFSSEESNLGANNYDDYRMDWLVPATCEPIQSVFFFSGDKYYRVNLRTRRVDTVDPPYPRSIAQYWLGCPAPGHL | – | – | failed to stimulate tyrosine phosphorylation
